Measured values published in PMC7012691.

Substrate: O=[N+]([O-])c1ccc(O[C@H]2O[C@H](CO)[C@@H](O)[C@H](O)[C@@H]2O)cc1
Assay: purified protein
Assay type: biochemical, Enterococcus faecalis
Details: apparent, MES 100 mM, pH 6.0, CaCl2 4 mM, 37 °C, 10 min

B1: EfMan-I (Enterococcus faecalis V583) (protein)
chain: MNIQAIDTRHGTANQHSFSNGNCLPYTGVPFGMNFYAPQTTDQKGSWWFHPEDRTFQGYRVTHQPSPWMGDFSHLLMTPVSGSLSELSLFHAQSSYRPEESLFSPVEINLTQLRYQITSQLIPSMYGGILTIDYQQKDNHLLLTLPGRYQVKQLDDHQVAVKVINYSGCEDPDFSFYFVLHFEQPLTKWFAPSSGEDGKILLSFGNIAQQVVHFSSSFISEKQAQLNLAREISLRSTEMLQQGIADWHNYFDRLKVTHENPEHTKTFYHTLYRTFLFPQTFYELDENQQPIHYDTFSQTVRPGVLYTNNGFWDTYKTVYPLFSLIAQEKYEEMLEGFLNSYNETGFLPKWLSPDERGLMPGTLIDAVIADAAVKKIRPDLMPQFLEAMKKGATQQSERENYGRQGTLDYLKYGYVPSTYHESVNHTLDYAYSDFCISQVAKTLNDSETATFYRQQALNYQQLFNPETGFMQAKDTEGNFRPDFLDIRWGKDYAEGSAWQSSFAVYQDFAGLIKLYGSELAFEKKLIQLCNQAPNFNVEGYGFEIHEMSEMAAIDFGQLAISNQPSFHYPFLFSYIGKPEMAQPLLKQLMQTFDASPTGYPGDEDNGSMSAWYIFNSLGFYPVTPGTGEYVIGMPLVQTAEVKLSNGKQLTIQTSPNKVQQQFIHEIQLNQEKHTAPYFTHQELLNGGTLDYQLGIVPNPQNTAERPFSLSTEK
**Q.** For B1, which Km is on record?
**A.** 11 ± 1.7 mM

**Q.** And the kcat?
**A.** 0.49 ± 0.03 s⁻¹

**Q.** And the kcat/Km?
**A.** 47 M⁻¹ s⁻¹
